We go through 2 molecules from CN115010810A (NANJING SANHOME PHARMACEUTICAL CO LTD, dated 2022).

The target of assay [1] is T1, 人CTLA-4-His蛋白 (human CTLA-4 extracellular domain fused to His tag) (human, UniProt P16410 36-161).
T1 construct: also called hCTLA-4-His
T1 sequence: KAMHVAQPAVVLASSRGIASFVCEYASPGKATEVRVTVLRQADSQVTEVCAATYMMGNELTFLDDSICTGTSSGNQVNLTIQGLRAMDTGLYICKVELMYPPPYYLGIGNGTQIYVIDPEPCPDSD
Briefly: ELISA, human CTLA-4-His coated.

In assay [2] the target is T2, 食蟹猴PD-1-His (SB, Cat.No.90311-C08H) (cynomolgus monkey).
T2 construct: Purchased protein; also called cynomolgus PD-1-His
Briefly: ELISA, cynomolgus PD-1-His coated. For orientation: In an ELISA, binding on a coated surface is turned into a signal by an enzyme label.

For assay [3], the target named is T3, PD-1 on the surface of hPD-1-CHO-K1 cells (human, UniProt Q15116 25-288).
T3 construct: also called 细胞表面PD-1; CHO-K1-PD-1
Description: FACS on hPD-1-CHO-K1 cells.

The target in assay [4] is 人PD-1-His蛋白 (自产; human PD-1 extracellular domain with His tag) (human, UniProt Q15116 25-170). Briefly: ELISA, human PD-1-His coated.
Chain of 人PD-1-His蛋白 (自产; human PD-1 extracellular domain with His tag) (Q15116 25-170 limits assumed): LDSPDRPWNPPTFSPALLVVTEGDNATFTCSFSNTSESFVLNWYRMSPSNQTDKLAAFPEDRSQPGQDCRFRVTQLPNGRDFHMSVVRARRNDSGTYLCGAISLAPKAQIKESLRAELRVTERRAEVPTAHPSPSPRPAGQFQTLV

T3 sequence (Q15116 25-288 limits assumed): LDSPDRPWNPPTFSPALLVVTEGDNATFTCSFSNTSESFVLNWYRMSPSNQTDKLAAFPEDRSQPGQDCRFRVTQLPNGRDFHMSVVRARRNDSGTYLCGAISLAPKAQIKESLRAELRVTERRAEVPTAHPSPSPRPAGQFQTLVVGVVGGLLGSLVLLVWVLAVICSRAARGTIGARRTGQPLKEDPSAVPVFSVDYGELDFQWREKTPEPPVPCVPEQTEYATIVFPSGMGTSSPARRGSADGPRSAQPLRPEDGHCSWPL

B1: HuC92-11 (antibody, V domains shown)
VH: QVQLVESGGGVVQPGRSLRLSCAASGFTFSNYAMSWVRQAPGKGLEWVAEISYSGTYSYHSDTVTGRFTISRDNSKNTLYLQMSSLRAEDTAVYYCTRRDYDNEMDYWGQGTLVTVSS
VL: DIQMTQSPSSLSASVGDRVTITCRTSQVITNYLNWYQQKPGKAPKLLIYYTSRLHSGVPSRFSGSGSGTDYTLTISSLQPEDFATYYCQQFGKRPPTFGGGTKVEIK
notes: also called SHS010-HuC92-11; 人源化抗CTLA-4抗体HuC92-11
As for B1, the concentration giving a half-maximal response (EC50) in assay [1] came to 0.01 nM.

B2: SHS006-HuP01-22 (antibody, V domains shown)
VH: QVQLVQSGAEVKKPGASVKVSCKASGYTFTWYHMSWVRQAPGQGLEYMGYINTRSGDTYYNEKFKGRVTMTTDTSTSTAYMELRSLRSDDTAVYYCARSGYGGSDYWGQGTLVTVSS
VL: DIVMTQSPDSLAVSLGERATINCKSSQNLLYSENKKNSLAWYQQKPGQPPKLLISWASTREFGVPDRFSGSGSGTDFTLTISSLQAEDVAVYYCEQYYDILPTFGGGTKVEIK
notes: also called SHS006-P01-22; 人源化抗PD-1抗体SHS006-HuP01-22
On to B2, for which the half-maximal effective concentration (EC50) was determined as 0.088 nM in assay [2], 0.11 nM in assay [3] and 0.18 nM in assay [4].

As usually defined, the EC50 is the midpoint of the concentration-response curve. Low values mean a more potent agent, high ones a less potent agent.
